Reference: paper PMC10849647

The substances below were run against pre-translocation ribosomal complex (without L27-tRNA labeling) (UniProt P0AG67) (assay: co-sedimentation).

**Q.** Which ratio of co-sedimented EF-G to ribosomal S1 protein does the source give for “M5, the F410C-Y533C variant of a cysteineless E. coli EF-G (enzyme)” here?
**A.** 0.15 EF-G per S1

**Q.** With T48V mutant of M5 EF-G (enzyme) as the substance, how does the ratio of co-sedimented EF-G to ribosomal S1 protein read?
**A.** 1 EF-G per S1

**Q.** T48E mutant of M5 EF-G (enzyme) was tested. Which ratio of co-sedimented EF-G to ribosomal S1 protein did it give?
**A.** 0.22 EF-G per S1
